Legend:
soluble human C3b = soluble human C3b (UniProt P01024)
human C4b = human C4b (UniProt P0C0L5)
Chain of human C4b (P0C0L5 whole entry, looked up): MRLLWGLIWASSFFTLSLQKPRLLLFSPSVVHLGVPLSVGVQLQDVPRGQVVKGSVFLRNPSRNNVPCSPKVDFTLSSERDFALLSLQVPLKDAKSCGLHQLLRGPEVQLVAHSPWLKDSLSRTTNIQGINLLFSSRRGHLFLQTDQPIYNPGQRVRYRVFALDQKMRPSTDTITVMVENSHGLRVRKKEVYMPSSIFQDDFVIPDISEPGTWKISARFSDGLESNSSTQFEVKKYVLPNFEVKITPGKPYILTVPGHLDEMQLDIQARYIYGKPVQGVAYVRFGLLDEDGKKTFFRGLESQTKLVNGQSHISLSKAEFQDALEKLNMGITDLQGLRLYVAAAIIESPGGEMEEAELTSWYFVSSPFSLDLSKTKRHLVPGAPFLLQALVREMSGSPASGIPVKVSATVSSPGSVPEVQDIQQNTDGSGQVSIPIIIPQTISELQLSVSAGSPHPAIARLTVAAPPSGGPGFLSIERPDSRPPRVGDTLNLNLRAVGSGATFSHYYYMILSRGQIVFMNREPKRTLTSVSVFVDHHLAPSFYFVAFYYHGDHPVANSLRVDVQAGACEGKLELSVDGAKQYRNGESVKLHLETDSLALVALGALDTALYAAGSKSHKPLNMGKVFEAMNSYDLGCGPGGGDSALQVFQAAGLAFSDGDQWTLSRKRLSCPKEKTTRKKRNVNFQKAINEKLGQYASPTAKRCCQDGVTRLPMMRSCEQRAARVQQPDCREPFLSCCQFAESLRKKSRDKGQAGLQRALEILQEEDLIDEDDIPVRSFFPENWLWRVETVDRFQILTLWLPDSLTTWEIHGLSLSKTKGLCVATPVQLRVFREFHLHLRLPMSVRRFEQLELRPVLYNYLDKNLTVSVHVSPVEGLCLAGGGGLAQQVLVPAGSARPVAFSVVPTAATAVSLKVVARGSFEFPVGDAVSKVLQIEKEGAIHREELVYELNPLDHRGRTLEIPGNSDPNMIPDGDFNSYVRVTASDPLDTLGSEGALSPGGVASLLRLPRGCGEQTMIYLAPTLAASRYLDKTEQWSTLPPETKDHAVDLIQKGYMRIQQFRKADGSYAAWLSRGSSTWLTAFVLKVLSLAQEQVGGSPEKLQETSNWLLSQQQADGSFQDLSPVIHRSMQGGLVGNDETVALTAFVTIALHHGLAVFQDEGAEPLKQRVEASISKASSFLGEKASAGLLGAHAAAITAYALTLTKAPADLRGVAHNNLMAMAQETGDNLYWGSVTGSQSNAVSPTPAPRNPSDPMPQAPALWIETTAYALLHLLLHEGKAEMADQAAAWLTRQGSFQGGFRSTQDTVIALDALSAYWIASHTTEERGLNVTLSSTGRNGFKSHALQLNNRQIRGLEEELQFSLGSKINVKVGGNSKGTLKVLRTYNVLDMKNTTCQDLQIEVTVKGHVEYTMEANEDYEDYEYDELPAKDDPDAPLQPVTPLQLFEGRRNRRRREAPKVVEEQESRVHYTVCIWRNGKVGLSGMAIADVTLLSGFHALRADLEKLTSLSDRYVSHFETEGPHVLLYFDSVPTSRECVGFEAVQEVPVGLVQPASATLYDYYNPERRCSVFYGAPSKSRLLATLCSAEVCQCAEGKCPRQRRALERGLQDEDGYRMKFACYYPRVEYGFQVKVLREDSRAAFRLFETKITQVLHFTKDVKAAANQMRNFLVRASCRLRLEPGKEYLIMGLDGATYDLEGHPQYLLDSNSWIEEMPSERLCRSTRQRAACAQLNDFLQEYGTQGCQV

Chain of soluble human C3b (P01024 whole entry, looked up, tested part not stated): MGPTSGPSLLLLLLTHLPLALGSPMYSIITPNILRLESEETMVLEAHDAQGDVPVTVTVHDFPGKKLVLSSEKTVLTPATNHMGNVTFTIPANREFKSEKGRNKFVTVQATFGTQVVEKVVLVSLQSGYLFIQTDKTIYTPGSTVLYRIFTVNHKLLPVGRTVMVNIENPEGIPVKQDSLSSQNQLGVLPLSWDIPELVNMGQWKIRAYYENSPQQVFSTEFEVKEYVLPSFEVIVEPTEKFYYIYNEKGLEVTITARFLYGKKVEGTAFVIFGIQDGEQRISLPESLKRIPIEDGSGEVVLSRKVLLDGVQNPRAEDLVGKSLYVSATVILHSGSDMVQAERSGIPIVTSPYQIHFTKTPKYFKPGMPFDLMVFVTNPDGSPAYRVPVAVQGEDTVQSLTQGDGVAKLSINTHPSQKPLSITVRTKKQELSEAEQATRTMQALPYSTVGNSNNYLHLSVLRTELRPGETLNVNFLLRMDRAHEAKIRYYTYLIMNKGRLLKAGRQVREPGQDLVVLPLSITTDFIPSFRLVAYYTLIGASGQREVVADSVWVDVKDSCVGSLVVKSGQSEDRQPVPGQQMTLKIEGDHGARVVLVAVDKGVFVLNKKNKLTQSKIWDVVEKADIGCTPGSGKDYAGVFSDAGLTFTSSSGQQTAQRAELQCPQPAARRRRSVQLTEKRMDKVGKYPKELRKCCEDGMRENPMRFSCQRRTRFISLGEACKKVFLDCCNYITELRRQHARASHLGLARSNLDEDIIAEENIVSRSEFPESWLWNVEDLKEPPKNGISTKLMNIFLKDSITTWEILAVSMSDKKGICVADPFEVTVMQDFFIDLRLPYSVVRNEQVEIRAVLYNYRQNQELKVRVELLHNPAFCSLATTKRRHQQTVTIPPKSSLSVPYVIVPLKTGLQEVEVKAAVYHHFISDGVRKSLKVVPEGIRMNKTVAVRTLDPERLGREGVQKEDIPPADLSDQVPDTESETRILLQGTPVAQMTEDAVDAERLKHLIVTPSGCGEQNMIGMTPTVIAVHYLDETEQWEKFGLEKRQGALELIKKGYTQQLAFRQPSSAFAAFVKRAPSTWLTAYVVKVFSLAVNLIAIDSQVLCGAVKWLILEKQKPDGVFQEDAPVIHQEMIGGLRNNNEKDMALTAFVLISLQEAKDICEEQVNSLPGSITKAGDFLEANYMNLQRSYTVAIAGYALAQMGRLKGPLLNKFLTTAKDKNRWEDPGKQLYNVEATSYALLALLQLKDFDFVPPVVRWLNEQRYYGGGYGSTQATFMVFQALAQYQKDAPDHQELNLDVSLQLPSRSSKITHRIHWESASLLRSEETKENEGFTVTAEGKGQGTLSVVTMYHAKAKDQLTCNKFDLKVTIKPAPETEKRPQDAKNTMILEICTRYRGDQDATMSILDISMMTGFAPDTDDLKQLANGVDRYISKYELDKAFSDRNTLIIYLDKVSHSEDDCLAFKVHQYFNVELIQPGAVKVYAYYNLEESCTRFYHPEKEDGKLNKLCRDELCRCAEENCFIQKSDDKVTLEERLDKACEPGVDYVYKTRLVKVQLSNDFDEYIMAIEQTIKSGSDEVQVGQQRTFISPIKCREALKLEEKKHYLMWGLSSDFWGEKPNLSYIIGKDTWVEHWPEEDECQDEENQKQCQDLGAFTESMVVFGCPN
Chain of Const. No. 48: HSA-GGSSGG-hCFI; Δ(V565) > VG (chain): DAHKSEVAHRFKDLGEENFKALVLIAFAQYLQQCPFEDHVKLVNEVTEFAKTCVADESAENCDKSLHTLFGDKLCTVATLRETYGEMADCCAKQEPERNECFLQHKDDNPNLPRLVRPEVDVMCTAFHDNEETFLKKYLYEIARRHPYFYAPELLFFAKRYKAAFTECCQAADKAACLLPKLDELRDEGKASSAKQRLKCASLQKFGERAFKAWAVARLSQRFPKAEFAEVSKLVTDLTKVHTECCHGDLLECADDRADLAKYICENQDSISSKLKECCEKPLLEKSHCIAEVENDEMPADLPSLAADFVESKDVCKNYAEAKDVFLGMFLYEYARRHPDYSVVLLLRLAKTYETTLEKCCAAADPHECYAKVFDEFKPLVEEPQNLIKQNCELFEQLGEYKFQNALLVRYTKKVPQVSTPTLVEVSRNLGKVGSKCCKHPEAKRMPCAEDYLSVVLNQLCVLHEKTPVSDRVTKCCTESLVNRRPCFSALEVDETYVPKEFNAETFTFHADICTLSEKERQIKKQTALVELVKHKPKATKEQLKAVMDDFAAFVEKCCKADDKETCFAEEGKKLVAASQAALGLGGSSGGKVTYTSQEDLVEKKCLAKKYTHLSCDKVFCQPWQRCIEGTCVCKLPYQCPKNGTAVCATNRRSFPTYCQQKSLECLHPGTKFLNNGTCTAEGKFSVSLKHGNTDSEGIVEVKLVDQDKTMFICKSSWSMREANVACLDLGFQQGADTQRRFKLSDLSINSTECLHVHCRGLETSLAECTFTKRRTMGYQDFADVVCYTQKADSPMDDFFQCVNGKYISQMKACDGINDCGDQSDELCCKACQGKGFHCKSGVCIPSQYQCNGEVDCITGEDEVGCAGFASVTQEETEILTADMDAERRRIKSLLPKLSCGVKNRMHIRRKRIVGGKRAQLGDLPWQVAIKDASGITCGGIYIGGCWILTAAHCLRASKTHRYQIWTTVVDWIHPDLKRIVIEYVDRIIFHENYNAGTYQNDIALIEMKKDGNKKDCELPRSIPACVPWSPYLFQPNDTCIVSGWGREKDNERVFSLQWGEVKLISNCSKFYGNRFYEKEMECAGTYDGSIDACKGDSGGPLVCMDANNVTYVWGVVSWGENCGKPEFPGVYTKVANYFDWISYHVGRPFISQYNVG

Substance | iC3b ref fold (soluble human C3b) [fold] | C4c ref fold (human C4b) [fold]
Const. No. 41: HSA-GGSSGG-hCFI; L73F | 0.9 | 2.36
Const. No. 42: HSA-GGSSGG-hCFI; L73D | 0.08 | 2.33
Const. No. 43: HSA-GGSSGG-hCFI; Δ(275-CAGFASVAQE-284)(SEQ ID NO: 31) > CEEDRQQNIPKGLARSAQGEAEIETE (SEQ ID NO: 32) | 0.89 | 1.54
Const. No. 44: HSA-GGSSGG-hCFI; Δ(275-CAGFASVAQE-284)(SEQ ID NO: 31) > CEEDRQQNIPKGLARSAQGEAEIETE (SEQ ID NO: 32) + GGSSGG (SEQ ID NO: 6) + CR1(ccp15-17) | 0.03 | 3.47
Const. No. 45: HSA-GGSSGG-hCFI; R484A | 0.7 | 1.3
Const. No. 46: HSA-GGSSGG-hCFI; R484K | 1.21 | 0.76
Const. No. 47: HSA-GGSSGG-hCFI; R484E | 0.35 | 0.93
Const. No. 48: HSA-GGSSGG-hCFI; Δ(V565) > VG | 0 | 0.67
Const. No. 49: HSA-GGSSGG-hCFI; Δ(V565) > VY | 0.15 | 1.47
Const. No. 50: HSA-GGSSGG-hCFI; E416K | 1.89 | 1.23
Const. No. 51: HSA-GGSSGG-hCFI; E416R | 1.87 | 1.17
Const. No. 52: HSA-GGSSGG-hCFI; D395A | 1.55 | 0.78
Const. No. 53: HSA-GGSSGG-hCFI; D395G | 1.52 | 0.8
Const. No. 54: HSA-GGSSGG-hCFI; D395K | 2.06 | 1.61
Const. No. 55: HSA-GGSSGG-hCFI; D395R | 1.85 | 1.38
Const. No. 56: HSA-GGSSGG-hCFI; D395A; D425A | 1.77 | 0.65
Const. No. 57: HSA-GGSSGG-hCFI; D395A; E416A | 0.76 | 0.06
Const. No. 58: HSA-GGSSGG-hCFI; D395A; E416A; D425A | 0.77 | 0.06
Const. No. 59: HSA-GGSSGG-hCFI; N402D | 0.74 | 1.66
Const. No. 60: HSA-GGSSGG-hCFI; K368D | 0.03 | 1.39

Substance | iC3b ref fold (soluble human C3b) [fold] | C4c ref fold (human C4b) [fold]
Const. No. 64: HSA-GGSSGG-hCFI-GGSSGG-hCR1; CCP8; CCP9; CCP10 | 0.06 | 4.11
Const. No. 67: HSA-GGSSGG-hCFI-GGSSGG-hCR1; CCP1; CCP2; CCP3; CCP4 | -0.01 | 3.2
Const. No. 68: HSA-GGSSGG-hCFI-GGSSGG-hCR1; CCP1; CCP2; CCP3-GGSSGG-hCR1; CCP15; CCP16; CCP17 | 0.06 | 3.75
Const. No. 70: HSA-GGSSGGSSGG-Rat CFI | 0.94 | 4.12
Const. No. 71: HSA-GGSSGGSSGG-Gorilla CFI | 0.07 | 0.09
Const. No. 72: HSA-GGSSGGSSGG-Cyno CFI | 3.17 | 0.34
Const. No. 73: HSA-GGSSGGSSGG-Chimp CFI | 0.08 | -0.03
Const. No. 74: HSA-GGSSGGSSGG-Bovine CFI | 1.67 | 2.19
Const. No. 75: HSA-GGSSGGSSGG-Alligator CFI | -0.03 | 0.12
Const. No. 76: HSA-GGSSGG-hCFI; H383K; D385N; K387S; R388Q; E392Q; Y393T; D395K; K419M; D420H; G421T; N422G; D425E | 2.11 | 4.46
Const. No. 77: HSA-GGSSGG-hCFI; H383K; R388Q; E392Q; Y393T; K419M | 1.21 | 3.81
Const. No. 78: HSA-GGSSGG-hCFI; K51D; T59E; R61D | 0 | -0.24
Const. No. 79: HSA-GGSSGG-hCFI; Q69H; L73F; G79E; T80I; L83S; N84H | 1.63 | 3.36
Const. No. 80: HSA-GGSSGG-hCFI; Δ(1-KVTYTS-6)(SEQ ID NO: 35) > RSPSASDLP (SEQ ID NO: 36) | 0.91 | 3.07
Const. No. 81: HSA-GGSSGG-hCFI; M186E; G187L; Y188S; Q189N; D190G; F191L; D193G | 0.95 | 3.31
Const. No. 89: HSA-GGSSGG-hCFI; T377G; E457G; N531G-GGSSGG-hCR1; CCP15; CCP16; CCP17; hFH; CCP4-GGGGGGGGGGGG-hFH; CCP19; CCP20 | 0.05 | 3.21
Const. No. 91: HSA-GGSSGG-hCFI; T377A; E457G; N531G | 1.7 | 4.59
Const. No. 92: HSA-GGSSGG-hCFI; N422A | 0.72 | 1.52
Const. No. 93: HSA-GGSSGG-hCFI; T377A | 1.09 | 2.36
Const. No. 95: HSA linked with CFI (CFI-HSA), wild type | 1 | 1

Reference: patent US20250011379
